Test [1] has as its target type-L calcium channels, verapamil site (rat cerebral cortex homogenates) (rat). As to the kind of experiment: inhibition of specific binding of 0.5 nM (3H)(-)D 888 by 1.0% Argireline; rat cerebral cortex membranes, scintillation counting.
Test [2] has the same target. The experiment in a line: inhibition of specific binding of (3H)(-)D 888 by 10% Argireline; rat cerebral cortex membranes.
For test [3] the target is unchanged. As to the kind of experiment: specific binding of 0.5 nM (3H)(-)D 888 left with the MIXTURE of 1.0% Argireline and 1 x 10^-4 M magnesium gluconate; rat cerebral cortex membranes; replicate 2.
The target is the same in test [4]. The experiment in a line: specific binding of 0.5 nM (3H)(-)D 888 left with the MIXTURE of 1.0% Argireline and 1 x 10^-4 M magnesium gluconate; rat cerebral cortex membranes; replicate 1.
Test [5] has the same target. As to the kind of experiment: specific binding of 0.5 nM (3H)(-)D 888 left with 1.0% Argireline; rat cerebral cortex membranes, scintillation counting; replicate 1.
Test [6] shares this target. The experiment in a line: specific binding of 0.5 nM (3H)(-)D 888 left with the MIXTURE of 1.0% Argireline and 1 x 10^-4 M magnesium gluconate; rat cerebral cortex membranes.
For test [7] the target is unchanged. As to the kind of experiment: inhibition of specific binding of 0.5 nM (3H)(-)D 888 by the MIXTURE of 1.0% Argireline and 1 x 10^-4 M magnesium gluconate; rat cerebral cortex membranes.
For test [8] the target is unchanged. As to the kind of experiment: specific binding of 0.5 nM (3H)(-)D 888 left with 1.0% Argireline; rat cerebral cortex membranes, scintillation counting; replicate 2.
Test [9] shares this target. As to the kind of experiment: specific binding of 0.5 nM (3H)(-)D 888 left with the MIXTURE of 1.0% Argireline and 1 x 10^-4 M magnesium gluconate; rat cerebral cortex membranes; replicate 3.
The target is the same in test [10]. The experiment in a line: specific binding of 0.5 nM (3H)(-)D 888 left with 1.0% Argireline; rat cerebral cortex membranes, scintillation counting.
For test [11] the target is unchanged. As to the kind of experiment: inhibition of specific binding of (3H)(-)D 888 by 5% Argireline; rat cerebral cortex membranes.
Test [12] shares this target. As to the kind of experiment: specific binding of 0.5 nM (3H)(-)D 888 left with 1.0% Argireline; rat cerebral cortex membranes, scintillation counting; replicate 3.

With Ac-EEMQRR-NH2, the Mean % of inhibition was determined as 4% in test [1] and 16% in test [7]. For the same molecule, the mean percentage of inhibition in test [2] was found to be 52%; in test [11] it was 36%. Besides, the % of binding amounted to 85.3% in [3]; 81.6% in test [4]; 95.1% in test [5]; 93.1% in [8]; 85.1% in test [9]; 99.9% in [12]. Further, the Mean % of binding was found to be 84% in [6] and 96.1% in [10].
